Assay results from patent US6518404B1, “Human endothelin-bombesin receptor antibodies” (priority 1994, dated 2003).
Square brackets hold non-standard residues; d marks the D form. Peptide text beside a SMILES is read from it.

Legend:
[1] = target: T1, ETBR (endothelin-bombesin receptor) expressed in Xenopus oocytes (Homo sapiens, UniProt O15354); assay: Xenopus oocyte assay to identify ligand (voltage-clamp, calcium activated chloride channel activity); format: cell-based; conditions: for mean peak ± S.E. peak current response (chloride current): oocytes injected with pHHPEC49 derived RNA transcripts, n=75; for Cl- current response upon addition of ligand: 10 nM ligand, oocytes injected with RNA from ATCC #75823, clamped at -60 mV
T1 construct: expressed in transfected cells; host or cells: Xenopus oocytes microinjected with in vitro transcribed RNA
T1 sequence (O15354 27-613): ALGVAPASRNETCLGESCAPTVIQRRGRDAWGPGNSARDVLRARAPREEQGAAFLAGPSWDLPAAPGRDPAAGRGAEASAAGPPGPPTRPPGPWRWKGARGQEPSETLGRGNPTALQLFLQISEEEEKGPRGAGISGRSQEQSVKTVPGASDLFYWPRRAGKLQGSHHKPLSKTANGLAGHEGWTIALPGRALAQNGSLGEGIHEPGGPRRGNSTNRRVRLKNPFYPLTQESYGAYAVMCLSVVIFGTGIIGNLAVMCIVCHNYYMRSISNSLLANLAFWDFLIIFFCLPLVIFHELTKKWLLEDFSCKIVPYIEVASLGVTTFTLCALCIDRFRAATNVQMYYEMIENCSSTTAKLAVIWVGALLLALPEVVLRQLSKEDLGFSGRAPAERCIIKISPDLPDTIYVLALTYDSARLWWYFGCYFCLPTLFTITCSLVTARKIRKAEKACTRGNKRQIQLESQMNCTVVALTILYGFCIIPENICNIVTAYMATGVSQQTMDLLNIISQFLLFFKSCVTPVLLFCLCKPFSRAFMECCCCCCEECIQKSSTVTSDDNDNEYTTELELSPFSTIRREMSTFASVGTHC
Experimental: Arrow indicates ET1 addition. […] The mean peak ± S.E. peak current response to ET1 is 150±50 (n=75), ET2 156±55 (n=75) and Bombesin 148±47 (n=75).
(§1) RNA was synthesized in vitro from linearized DNA, ATCC #75823, using an RNA transcription kit. This RNA was microinjected into Xenopus oocytes (10 ng of RNA/occytes). The oocytes were manually defolliculated prior to microinjection to remove any endogenous receptors that might be present in the follicular membranes. The injected oocytes were maintained in modified Barth's medium at 18° C. for 48 hours to allow for receptor protein expression. Electrophysiology was performed using the voltage-clamp technique. Oocytes were clamped at −60 mV and the calcium activated chloride channel activity was recorded in Barth's medium at room temperature. Data were analyzed using Axotape software.
(§2) The ET1 and ET3 mediated response was blocked by the ET receptor peptide antagonist BQ123. […] Since it responds to both ET and Bombesin it represents a novel endothelin-bombesin receptor.

uninjected oocytes = assay: Uninjected Xenopus oocytes (control for endogenous response); format: cell-based; conditions: uninjected oocytes (data not shown)
Experimental: as §1, §2

Compound | mean peak ± S.E. peak current response (chloride current) [1] [nanoamps] | effect on ET1 and ET3 mediated response ([1]; oocytes injected with RNA from ATCC #75823) | change in membrane potential upon addition of ligand (uninjected oocytes) | Cl- current response upon addition of ligand [1]
endothelin-2 (CSCSSWLDKECVYFCHLDIIW) [ET2, member of the endothelin peptide family] | 156±55 | – | – | –
CC(C)C[C@@H]1NC(=O)[C@@H](C(C)C)NC(=O)[C@@H]2CCCN2C(=O)[C@@H](CC(=O)O)NC(=O)[C@@H](Cc2c[nH]c3ccccc23)NC1=O [BQ123] (cyclo(L[dW][dD]P[dV])) | – | blocked | – | –
endothelin-1 [ET1] | 150±50 | – | did not elicit any change in membrane potential | fairly strong Cl^− currents
endothelin-3 [ET3] | – | – | did not elicit any change in membrane potential | fairly strong Cl^− currents
AII: related peptide ligand (DRVYIHPF) | – | – | – | did not illicit any response
Neuropeptide Y | – | – | – | did not illicit any response
